The record followed here is US20250090676A1 (SUTRO BIOPHARMA, published 2025).

In assay [1] the target is T1, human folate receptor alpha on cells (human, UniProt P15328 25-234). Description: cell-based or functional assay.
Assay [2] has as its target T2, human folate receptor beta on cells (human, UniProt P14207 17-230). The experiment in a line: cell-based or functional assay.
In assay [3] the target is T1, human folate receptor alpha on cells. Description: FACS cell binding (MFI) on 293T-hFOLR1 cells; parental 293T cells as negative control.
Assay [4] has the same target. The experiment in a line: FACS cell binding (MFI) on 293T cells stably expressing hFOLR1 (293T-hFOLR1); parental 293T cells as negative control.
Assay [5] deals with T3, human folate receptor alpha (hFOLR1) on cells (human, UniProt P15328 25-234). Description: cell-based or functional assay.
T3 sequence (P15328 25-234 limits assumed): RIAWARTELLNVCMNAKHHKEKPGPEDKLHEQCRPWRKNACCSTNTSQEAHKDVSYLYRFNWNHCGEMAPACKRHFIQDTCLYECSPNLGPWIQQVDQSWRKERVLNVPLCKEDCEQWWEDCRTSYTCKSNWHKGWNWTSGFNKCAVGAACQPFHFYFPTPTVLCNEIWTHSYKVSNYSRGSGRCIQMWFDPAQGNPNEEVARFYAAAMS
For assay [6], the target named is T2, human folate receptor beta on cells. The experiment in a line: FACS cell binding (MFI) on 293T cells stably expressing hFOLR2 (293T-hFOLR2); parental 293T cells as negative control.
In assay [7] the target is T4, human FOLR1-HIS (human, UniProt P15328 25-233).
T4 construct: Analyte of the Biacore assay; also called FolRα-ECD; extracellular domain of FOLR1; not shown: HIS tag
T4 sequence (P15328 25-233 limits assumed): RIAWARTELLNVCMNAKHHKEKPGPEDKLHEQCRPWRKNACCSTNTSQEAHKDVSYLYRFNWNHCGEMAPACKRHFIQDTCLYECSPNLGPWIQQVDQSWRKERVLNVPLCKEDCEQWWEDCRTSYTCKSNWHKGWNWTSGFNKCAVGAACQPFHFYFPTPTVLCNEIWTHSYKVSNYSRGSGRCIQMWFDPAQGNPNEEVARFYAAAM
The experiment in a line: SPR (Biacore).

For assay [8], the target named is T3, human folate receptor alpha (hFOLR1) on …. The experiment in a line: FACS cell binding on CHO-h-FOLRα cells.
Protocol: (§1) CHO cells were transfected to stably express human (CHO-hFOLR1), cynomolgus (CHO-cFOLR1), or mouse (CHO-mFOLR1) target molecule FOLR1 on the cell surface. Parental CHO cells were used as a negative control to determine background binding levels. Parental CHO and stably transfected CHO-hFOLR1, CHO-cFOLR1, and CHO-mFOLR1 cells were cultured in Ham's F-12: high glucose DMEM (50:50) (Corning, Cellgro-Mediatech) supplemented with 10% heat-inactivated fetal bovine serum (Corning, Cellgro-Mediatech), 1% Penicillin/Streptomycin (Corning, Cellgro-Mediatech) and 2 mmol/L-glutamax (Life Technology).
(§2) A mixture of fluoresecent-labeled parental CHO cells and unlabeled CHO-hFOLRlcells were prepared as follows. Parental CHO cells were washed twice in PBS and incubated in PBS containing with 1 nM CellTrace™ Oregon Green488® (Life Technologies) at 37° C. for 30 minutes. Labeled parental CHO cells were then washed 2× with Ham's F-12 media and 2× with FACS buffer (PBS with 1% bovine serum albumin). Unlabeled CHO-hFOLR1 cells were similarly washed and prepared. […] Data were analyzed using FlowJo® software (FlowJo, LLC; Ashland, OR) to determine mean fluorescence intensities. Binding constants were calculated using the statistical software, GraphPad Prism (GraphPad Software; La Jolla, CA) using the nonlinear regression equation, one site-specific binding with Hill slope. […]
For assay [9], the target named is T5, cynomolgus folate receptor alpha on CHO cells (cynomolgus monkey, UniProt P15328 25-234 (human entry)).
T5 construct: Stably expressed on CHO cells; also called CHO-c-FOLRα; CHO-cFOLR1
T5 sequence (P15328 other isoform, or with tags, fused parts or gaps limits assumed): as the sequence (P15328 25-234 limits assumed) above, with I2T, W4R, R37K, Q117R, A146P, H171Y counted along it
The experiment in a line: FACS cell binding on CHO-c-FOLRα cells (row 'Cross-reactivity, Cyno').
Protocol: as §1, §2

For assay [10], the target named is T4, human FOLR1-HIS. Description: SPR (Biacore), antibody captured on anti-Fc, human FOLR1-HIS analyte, 25 C.
Protocol: Anti-Fc polyclonal antibodies were immobilized onto a CM5 chip (GE Life Sciences) using amine coupling chemistry (from Amine Coupling Kit, GE Life Sciences). The immobilization steps were carried out at a flow rate of 25 μL/min in 1×HBS-EP+ buffer (GE Life Sciences; 10× Stock diluted before use). […] Ethanolamine (1 M, pH 8.5) was injected for 7 min to block any remaining activated groups. An average of 12,000 response units (RU) of capture antibody was immobilized on each flow cell.
Off-rate and kinetic binding experiments were performed at 25° C. using 1×HBS-EP+ buffer. […] Between each ligand capture and analyte binding cycle, regeneration was carried out using 2 injections of 10 mM glycine pH 2.0 for 30 seconds at 30 μL/min, followed by a 30 second buffer wash step.
The data were fit with the Biacore T200 Evaluation software, using a 1:1 Langmuir binding model. KD (affinity, nM) was determined as a ratio of the kinetic rate constants calculated from the fits of the association and dissociation phases.

T1 sequence (P15328 25-234 limits assumed): as the sequence (P15328 25-234 limits assumed) above
T2 sequence (P14207 17-230): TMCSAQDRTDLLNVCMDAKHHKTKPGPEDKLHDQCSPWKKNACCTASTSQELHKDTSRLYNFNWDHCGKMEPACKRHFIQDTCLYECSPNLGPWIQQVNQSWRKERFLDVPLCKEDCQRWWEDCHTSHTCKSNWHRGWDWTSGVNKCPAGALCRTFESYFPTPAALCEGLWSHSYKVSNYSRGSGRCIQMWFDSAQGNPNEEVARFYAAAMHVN

B1: ADC Molecule 4 (1848-H01, Y180/F404, Conjugate P) (antibody, V domains shown)
VH: EVQLVESGGGLVQPGGSLRLSCAASGFNIRTQSIHWVRQAPGKGLEWIGDIFPIDGITDYADSVKGRFTISADTSKNTAYLQMNSLRAEDTAVYYCARGSWSWPSGMDYYLDYWGQGTLVTVSS
VL: not shown
modifications: Non-natural amino acid (para-azidomethyl-L-phenylalanine) at HC-Y180 and HC-F404 (EU, in the constant region, which has no SEQ ID NO), each linked to cleavable ValCit hemiasterlin (Conjugate P); DAR about 3.7-3.8
Turning to B1, the “EC50 of cytotoxic activity on 293T cells expressing FolRα” value in assay [1] is below 10 nM. Moreover, the “EC50 of cytotoxic activity on 293T cells expressing FolRβ” value in assay [2] was around 100 nM.

B2: antibody 1848-H01 (antibody, V domains shown)
VH: EVQLVESGGGLVQPGGSLRLSCAASGFNIRTQSIHWVRQAPGKGLEWIGDIFPIDGITDYADSVKGRFTISADTSKNTAYLQMNSLRAEDTAVYYCARGSWSWPSGMDYYLDYWGQGTLVTVSS
VL: not shown
notes: the light chain is that of trastuzumab; It was tested as an IgG (detected with anti-human IgG); also called SRP1848-H01
For B2, in assay [3], the “EC50 (read off the curve)” value was around 10 nM. Further, in [4], the Kd was 9.9 nM.

B3: ADC Molecule 4 (1848-H01, Y180/F404, Conjugate P) (antibody, V domains shown)
VH: EVQLVESGGGLVQPGGSLRLSCAASGFNIRTQSIHWVRQAPGKGLEWIGDIFPIDGITDYADSVKGRFTISADTSKNTAYLQMNSLRAEDTAVYYCARGSWSWPSGMDYYLDYWGQGTLVTVSS
VL: not shown
modifications: para-azidomethyl-L-phenylalanine at HC-Y180 and HC-F404 (EU numbering, heavy chain constant region), each linked to the cleavable hemiasterlin linker-drug of Conjugate P; DAR about 3.7-3.8
Take B3: in assay [5], the “cell killing EC50 on Igrov1 cells in the presence of 0.5 uM unconjugated 1848-H01 as competitor” value is above 33 nM and the “cell killing EC50 on OVCAR3 cells in the presence of 0.5 uM unconjugated 1848-H01 as competitor” value was above 33 nM.

B4: antibody 1848-B10 (antibody, V domains shown)
VH: EVQLVESGGGLVQPGGSLRLSCAASGFNTTTKSIHWVRQAPGKGLEWVGEIYPRDGITDYADSVKGRFTISADTSKNTAYLQMNSLRAEDTAVYYCARGGWHWRSGYSYYLDYWGQGTLVTVSS
VL: not shown
notes: the light chain is that of trastuzumab; It was tested as an IgG; also called SRP1848-B10
For the molecule B4, in assay [4], the Kd worked out at 6.4 nM. In addition, the binding result in [6] was “no binding”.

B5: 1848-B10, Y180/F404 (antibody, V domains shown)
VH: EVQLVESGGGLVQPGGSLRLSCAASGFNTTTKSIHWVRQAPGKGLEWVGEIYPRDGITDYADSVKGRFTISADTSKNTAYLQMNSLRAEDTAVYYCARGGWHWRSGYSYYLDYWGQGTLVTVSS
VL: not shown
modifications: para-azidomethyl-L-phenylalanine (pAMF) at HC-Y180 and HC-F404 (EU numbering; both lie in the heavy chain constant region, not in this VH piece)
notes: Lead antibody with non-natural amino acid sites Y180/F404
As for B5, the Kd in the assay with human FOLR1-HIS [7] was 1.4 nM; in [8] it was 4.5 nM; in [9], 3.3 nM.

B6: 1848-H01, Y180/F404 (antibody, V domains shown)
VH: EVQLVESGGGLVQPGGSLRLSCAASGFNIRTQSIHWVRQAPGKGLEWIGDIFPIDGITDYADSVKGRFTISADTSKNTAYLQMNSLRAEDTAVYYCARGSWSWPSGMDYYLDYWGQGTLVTVSS
VL: not shown
modifications: para-azidomethyl-L-phenylalanine (pAMF) at HC-Y180 and HC-F404 (EU numbering; both lie in the heavy chain constant region, not in this VH piece)
notes: as for B5
B6: the Kd with human FOLR1-HIS [7] was 1 nM; in [8], 3.7 nM; in assay [9], 3.8 nM.

B7: SRP2060-E05 (antibody, V domains shown)
VH: EVQLLESGGGLVQPGGSLRLSCAFSGFSLSTFGMGVGWVRQAPGKGLEWVSHIWWDDDKYYHPALKGRFTVSKDNSKNTVYLQMNSLRAEDTAVYYCGRNHFPHYYGSSHWYFNVWGQGTTVTVSS
VL: EIVMTQSPATLSLSPGERATLSCKASQDINSYLSWYQQKPGQAPRLLIYRANRLVDGIPARFSGSGSGTDYTLTISSLEPEDFAVYYCLQYDEFPYTFGGGTKVEIK
notes: also called Antibody 57
For the molecule B7, in the assay with human FOLR1-HIS [10], the Kd was determined as 2.92 nM, the koff was 0.00158 s⁻¹ and the kon came out at 541000 M⁻¹ s⁻¹.

B8: SRP2060-B01 (antibody, V domains shown)
VH: EVQLLESGGGLVQPGGSLRLSCALSGFSLSTFGMGVGWVRQATGKGLEWVSHIWWDDDKYYHPALKGRFTISKDNSKNTVHLQMNSLRAEDTAVYYCGRNHFPHYYGSSHWYFNVWGQGTTVTVSS
VL: DIQMTQSPSTLSASVGDRVTITCKASQDINSYLSWYQQKPGKAPKLLIYRANRLVDGVPSRFSGSGSGTEFTLTISSLQPDDFATYYCLQYDEFPYTFGGGTKVEIK
notes: also called Antibody 58
On to B8, for which, in the assay with human FOLR1-HIS [10], the Kd is 2.62 nM, the koff came to 0.00147 s⁻¹ and the kon was 561000 M⁻¹ s⁻¹.

B9: SRP2060-A06 (antibody, V domains shown)
VH: EVQLLESGGGLVQPGGSLRLSCAFSGFSLSTFGMGVGWVRQAPGKGLEWVGHIWWDDDKYYYPALKGRFTISKDNSKNTVYLQMNSLRAEDTAVYYCGRNHFPHYYGSSHWYFDVWGQGTTVTVSS
VL: DIQMTQSPSTLSASVGDRVTITCKASQDINSYLSWYQQKPGKAPKLLIYRANRLVDGVPSRFSGSGSGTEFTLTISSLQPDDFATYYCLQYDEFPYTFGGGTKVEIK
notes: also called Antibody 59
As for B9, in the assay with human FOLR1-HIS [10], binding was characterised by a dissociation constant (Kd) of 13.3 nM, the koff is 0.00729 s⁻¹ and the kon is 547000 M⁻¹ s⁻¹.
